In US20220144922A1 (Adimab, published 2022):

Columns and labels:
[1] = molecular target: T1, postfusion RSV F ectodomain (F ΔFP), subtype A (respiratory syncytial virus subtype A, UniProt P03420 26-109; P03420 147-524); experiment: BLI, IgG on sensor
T1 construct: extracellular domain; also called Postfusion subtype A
Procedure: (§1) IgG binding to DS-Cav1 and FA FP was determined by BLI measurements using a FortéBio Octet HTX instrument (Pall Life Sciences). […] Data was analyzed using the ForteBio Data Analysis Software 7. The data was fit to a 1:1 binding model to calculate an association and dissociation rate, and KD was calculated using the ratio kd/kₐ.

[2] = molecular target: T2, prefusion-stabilized RSV F ectodomain (DS-Cav1), subtype B (respiratory syncytial virus subtype B); experiment: BLI, IgG on sensor
T2 construct: extracellular domain; also called Prefusion subtype B
Procedure: as §1

[3] = molecular target: T3, postfusion RSV F ectodomain, subtype B (respiratory syncytial virus subtype B); experiment: BLI, IgG on sensor
T3 construct: extracellular domain; also called Postfusion subtype B
Procedure: as §1

[4] = molecular target: RSV F protein of subtype A strain A2, on virus (respiratory syncytial virus subtype A …, UniProt P03420 26-574); experiment: cell-based or functional assay
[5] = molecular target: RSV F protein of subtype B strain 18537, on virus (respiratory syncytial virus subtype B …, UniProt P13843 26-574); experiment: cell-based or functional assay

| Binder | Kd [1] | Kd [2] | Kd [3] | Neut IC50 (ug/ml) subtype A [4] | Neut IC50 (ug/ml) subtype B [5] |
| --- | --- | --- | --- | --- | --- |
| ADI-15658 (antibody, V domains shown, IgG) VH: EVQLVESGGGLVQPGRSLRLSCVTSGFGFDDYAMHWVRQAPGKGLEWVSGIGWNSGGIGYADSVKGRFSISRDNAKNSLYLQMNSLRPEDTAFYYCVKDGTPIAVAGYFEYWGQGTLVTVSS VL: SYELTQPPSASGTPGQRVTISCSGGRSNIGNNYVYWYQQLPGTAPKLLIYRHDQRPSGVPDRFSGSKSGTSASLAINGLRSEDEADYFCAVWDDSLSCYVFGAGTKLTVL | 0.18 nM | 1.81 nM | 0.169 nM | 6.25 µg/mL | > 10 µg/mL |
| ADI-15005 (antibody, V domains shown, IgG; also called Antibody Number 124) VH: QVQLVESGPALVKPTQTLTLTCSFSGFSLTTRRMCVSWIRQTPGKALEWLARIDWDDDKDYSTSLKTRLTISKDTSKNQVVLTMTNMDPVDTATYYCARTHIYDSSGYYLYYFDYWGQGTLVTVSS VL: DIVLTQSPSSLSASIGDRVTITCRASQTIASYLNWYQQKPGKAPELLIYAATNLQSGVPSRFSGSGSGTDFTLTISSLRPEDFASYYCQQSYSSPWTFGQGTKVDIK | 0.237 nM | 1.4 nM | 0.253 nM | 2.16 µg/mL | 2.53 µg/mL |
| ADI-15629 (antibody, V domains shown, IgG) VH: EVQLVESGGGLVQPGGSLRLSCAASGFTFSDFAMSWVRQAPGKGLEWVSLIKSSDYAYYADSVRGRFTISRDNSKNTLYLRMNSLRADDTAVYYCAKDADFWSGDSYNGGYNFDSWGQGTLVTVSS VL: not shown | 0.228 nM | 0.36 nM | 0.213 nM | 0.085 µg/mL | 0.088 µg/mL |
| ADI-15573 (antibody, V domains shown, IgG; also called Antibody Number 143) VH: QVQLVQSGAEVKKPGASVKISCKTSGYTFTSSVISWVRQAPGQGLEWVGWITGHRSSTNYAQRLQGRVTMTTDTSTSTAYMELRSLRSDDTAVYYCARADGGSGSYYSAWGQGTLVTVSS VL: SYELTQPPSASVAPGKTARISCGGNNIGTKSVHWYQQKPGQAPVLVIYHDSHRPSGIPERFSGSNSGNTATLTISRVEAGDEADYYCQLWDSSSDSHVFGTGTKLTVL | 0.198 nM | – | 0.199 nM | 6.25 µg/mL | 1.67 µg/mL |
| ADI-15561 (antibody, V domains shown, IgG; also called Antibody Number 132) VH: QVQLVQSGAEVKKPGSSVKVSCKASGGTFSSYAINWVRQAPGQGLEWMGGIIPAFGTTIYAQRFQDRVTITADKSTSTAYMELRSLRSEDTAVYYCARSPPFWSDYSRGWFDPWGQGTLVTVSS VL: ETTLTQSPSALSASVGDRVTITCRASQTISGYLNWYQQKPGKAPKLLIYAASSLQSGVPSRFSGSSAGTDFTLSISNLQPEDFATYYCQQSYTTPWTFGQGTKVEIK | 0.591 nM | 8.62 nM | 1.08 nM | 5.63 µg/mL | 22.4 µg/mL |
| ADI-15651 (antibody, V domains shown, IgG) VH: EVQLVESGPALVKPTQTLTLTCTVSGGVERMSVSWVRQPPGKALEWLARIDWDDDKYYNTFLKTRLTISKGTSKNEVVLTMTNMDPEDTAIYYCARTNRYDKSGYYLYYLDYWGQGTLVTVSS VL: DIQMTQSPSSLSASVGDKVTITCRASQTIASYVNWYQQHPGKAPKLLIYLASRLQSGAPSRFSGSGSGTDFTLTILNLQPEDFATYYCQQSYSSFFTFGPGTKVEIK | 0.23 nM | 2.08 nM | 0.453 nM | 1.6 µg/mL | 3.29 µg/mL |
| ADI-15626 (antibody, V domains shown, IgG) VH: EVQLVESGAEVKKPGSSVKVSCKASGGTFSSYEISWVRQAPGQGLEWMGGINPMFGAANYAQKFQDRVTIIADKSTGTVYMELSSLRSEDTALYYCARERYPSTDDYYRSGRYYGEWGQGTTVTVSS VL: ETTLTQSPSTLSASVGDRVTITCRASQSIRSWLAWYQQKPGKAPKLLIYRASTSDSGVPSRFSGSGSGTEFTLTISSLQPDDFAIYYCQQYNSIPVTFGQGTKLEIK | 0.546 nM | 3.39 nM | 0.653 nM | 14.2 µg/mL | > 10 µg/mL |
| ADI-15633 (antibody, V domains shown, IgG) VH: QVQLVQSGAEVKKPGESLKISCKGSGYTFRMYWIGWARLLPGKGLEWIGIIYPGDSDTRYNPSLQGQVTMSVDKSINTAYLQWGSLKASDSAIYYCARLRLHPQSGMDVWGQGTLVTVSS VL: NFMLTQPHSVSESPGKTVVISCTRSSGSIAGYYVQWYQHRPGSSPTTVIYEDDQRPSGVPDRFSGSVDSSSNSASLTISGLKTEDEADYYCQSYDNAIWVFGGGTKLTVL | 0.104 nM | 0.896 nM | 0.111 nM | 12.8 µg/mL | > 10 µg/mL |
| ADI-15612 (antibody, V domains shown, IgG) VH: EVQLLESGGDLVQPGGSLRLSCAASGFPFSSHSMNWVRQAPGKGLEWISYISGGSDTIQYADSVKGRFTISRDNVKNSLYLQMNSLRAEDTAVYYCARDQYIWNYVEPLDYWGQGTLVTVSS VL: DIQMTQSPSSLSASVGDRVTITCRASQDISYYLGWYQQKAGKAPKLLIYAVSNLQTGVPSRFSGSGSGTDFTLTISSLQPEDFATYYCLQDHTCPWTFGQGTKVEIK | 0.416 nM | 0.157 nM | 0.353 nM | 0.053 µg/mL | 0.164 µg/mL |
| ADI-15640 (antibody, V domains shown, IgG; also called Antibody Number 204) VH: QVQLVESGPALVKPTQTLTLTCAFSGFSLTTRGMSVSWIRQPPGKALEWLARIDWDDDKYYSTSLKTRLTISKDTSKNQVVLTMSNMDPVDTATYYCARASLYDSGGYYLFFFDYWGQGTLVTVSS VL: DIVMTQSPSSLSASVGDRVTITCRASQSIGSYLNWYQQKPGKVPKLLIYAASNLQGGVPSRFRGSGSGTDFTLTISNLQPEDFASYYCQLSYSSLWTFGQGTKVEIK | 0.169 nM | 1.49 nM | 0.196 nM | > 10 µg/mL | 4.82 µg/mL |
| ADI-15619 (antibody, V domains shown, IgG) VH: QVQLVQSGAEAKKPGASVKVSCTASGYTFTNDINWVRQATGQGLEWMGWMNPNNGHTGYGQKFEDRVTLTRDSSRSTAYMELSSLRFEDTAVYYCVYNFWSDSSVSWGRGTLVTVSS VL: QSVVTQPPSVSGAPGQSVAISCTGSSSNIGPAYDVHWYQQTPGAAPKLLIYGDSNRPSGVPDRFSTSKSGTSASLAITGLQAEDEADYYCQSFDSSLRGYVFGTGTKVTVL | 1.76 nM | 6.91 nM | 2.21 nM | 1.45 µg/mL | 0.377 µg/mL |
| ADI-15646 (antibody, V domains shown, IgG; also called Antibody Number 210) VH: EVQLLESGGGLIQPGGSLRLSCGASGFTVTGNYMHWVRQAPGKGLEWVSVIYAGSSTYYADSVRGRFTISRDKARNTLFLQMNRLRAEDTAVYYCARAGVVGEDRSGWYGPDYFHGLDVWGQGTTVTVSS VL: ETTLTQSPGTLSLSPGERATLSCRASQSIRNNYLAWYQQKPGQPPRLLIYGESRRATGIPGRFSGSGSGTDFTLTISSLEPEDFAVYYCQQYGGSPYTFGQGTKVDIK | 0.318 nM | 2.62 nM | 3.18 nM | 0.846 µg/mL | > 10 µg/mL |
| ADI-15576 (antibody, V domains shown, IgG; also called Antibody Number 146) VH: QVQLVQSGAAVKKPGESLKISCKGFGYSFTKYWIGWVRQVPGKGLEWIGIISPTDSNTRYSPSFRGQVTMSADKSISAAYLQWSSLKASDTAMYYCARHSSPYSSGWYGDTYFFDSWGQGTLVTVSS VL: QPVLTQPPSASGTPGQRVTISCSGSNSNIGTNTVNWYQQLPGTAPKVLIHNNNERPSGVPDRFSGSKSGTSASLAISGLQSEDEADYYCAAWDDSLRGYVFGTGTKVTVL | 0.237 nM | – | 0.179 nM | 6.08 µg/mL | 9.86 µg/mL |
| ADI-15627 (antibody, V domains shown, IgG; also called Antibody Number 192) VH: EVQLVESGGGVVQPGRSLRLSCAASGFTFSDYAMHWVRQAPGKGLEWVAVIWYDGGNKYYADSAKGRFTISRDNSKNTLYLQMNSLRAEDTAVYYCAKDRGSIWNVGDGMDVWGQGTTVTVSS VL: QPVLTQPPSVSVAPGQTARVTCGGNNIGAKSVHWYQQKPGQAPVLVVDDDTDRPSGIPERFSGSNSGNTATLTISRVEAGDEADYYCQVWDASIGPLYVFGTGTKLTVL | 0.158 nM | 1.61 nM | 0.137 nM | 2.17 µg/mL | 2.42 µg/mL |
| ADI-15645 (antibody, V domains shown, IgG) VH: EVQLLESGGGLVQPGGSLRLSCAASGFTFSSYAMSWVRQIPGKGLEWVSTINISGGSTYYADSVKGRFTISRDNSRDTVFLQMNGLRAEDTALYYCARGYHIDWFDFWGQGTLVTVSS VL: DIVLTQTPSSVSASVGDRVTITCRASQDIGSWLAWYQQKPGKAPQFLIYAASQLQSGVPSRFSGSGSGTDFTLTISSLQPEDFATYYCQQAKSLPRTFGGGTKVDIK | 0.367 nM | 4.6 nM | 0.352 nM | > 10 µg/mL | > 10 µg/mL |
| ADI-15641 (antibody, V domains shown, IgG; also called Antibody Number 205) VH: QVQLVESGGGVVQPGRSLRVSCAASGFDFSNYAMHWVRQAPGKGLEWVALISYDGNNKVYADSVKGRFTVSRDNSKNTLYLQMNSLRPEDTAVIYCAKDGYLAPDFWGQGTLVTVSS VL: QSVLTQPASVSGSPGQSIIISCTGTSSDVGEYDYVSWYQHHPHKAPKLIIYEVSNRPSGVSNRFSGSKSGNTASLTISGLQAEDEADYYCSSYTSSSGQAFGTGTKVTVL | 0.161 nM | 0.136 nM | 0.136 nM | 0.184 µg/mL | 0.483 µg/mL |
| ADI-15659 (antibody, V domains shown, IgG; also called Antibody Number 223) VH: QVQLVQSGAEVKKPGSSVKVSCKASGGTFSTYGISWVRQAPGQGLEWMGRVIPMFGTATYAQKFQDRVTITADKATSTAYMELNSLRSDDTAVYYCARCPPFEGVRPPWFDPWGQGTLVTVSS VL: SYELTQPPSVSVAPGRTAKITCGGYNIGNKRVHWYRQRPGQAPVLIVYDNADRPSGIPERFSGSNSGNTATLTISNVAAGDEADYHCQVWETSSDHPVFGGGTKLTVL | 1.13 nM | 11.1 nM | 3.66 nM | > 10 µg/mL | > 10 µg/mL |
